# According to US20230125301A1 (published 2023):
# B1: pdl1a-G15-CLDN18L (bispecific antibody)
# heavy: not shown
# light: EVQLVESGGGLVQPGGSLRLSCAASGRTFVTYGMGWFRQAPGKGREFVSAISWSGSMTSYGDSVKGRFTISRDNAKNTLYLQMNSLRPEDTAVYYCAAALGAVVYTTREPYTYWGQGTLVTVSSGGGGSGGGGSGGGGSDIVMTQSPLSLPVTPGEPASISCKSSQTLLNSGNQKNYLTWYLQKPGQSPQLLIYWASTGESGVPDRFSGSGSGTDFTLKISRVEAEDVGVYYCQNAYFYPFTFGGGTKVEIKRTVAAPSVFIFPPSDEQLKSGTASVVCLLNNFYPREAKVQWKVDNALQSGNSQESVTEQDSKDSTYSLSSTLTLSKADYEKHKVYACEVTHQGLSSPVTKSFNRGEC
# B2: pdl1a-G12-CLDN18L (bispecific antibody)
# heavy: not shown
# light: EVQLVESGGGLVQPGGSLRLSCAASGRTFVTYGMGWFRQAPGKGREFVSAISWSGSMTSYGDSVKGRFTISRDNAKNTLYLQMNSLRPEDTAVYYCAAALGAVVYTTREPYTYWGQGTLVTVSSGGGGSGGGGSGSDIVMTQSPLSLPVTPGEPASISCKSSQTLLNSGNQKNYLTWYLQKPGQSPQLLIYWASTGESGVPDRFSGSGSGTDFTLKISRVEAEDVGVYYCQNAYFYPFTFGGGTKVEIKRTVAAPSVFIFPPSDEQLKSGTASVVCLLNNFYPREAKVQWKVDNALQSGNSQESVTEQDSKDSTYSLSSTLTLSKADYEKHKVYACEVTHQGLSSPVTKSFNRGEC
# B3: CLDN18L-G12-pdl1a (bispecific antibody)
# heavy: not shown
# light: DIVMTQSPLSLPVTPGEPASISCKSSQTLLNSGNQKNYLTWYLQKPGQSPQLLIYWASTGESGVPDRFSGSGSGTDFTLKISRVEAEDVGVYYCQNAYFYPFTFGGGTKVEIKRTVAAPSVFIFPPSDEQLKSGTASVVCLLNNFYPREAKVQWKVDNALQSGNSQESVTEQDSKDSTYSLSSTLTLSKADYEKHKVYACEVTHQGLSSPVTKSFNRGECGGGGSGGGGSGSEVQLVESGGGLVQPGGSLRLSCAASGRTFVTYGMGWFRQAPGKGREFVSAISWSGSMTSYGDSVKGRFTISRDNAKNTLYLQMNSLRPEDTAVYYCAAALGAVVYTTREPYTYWGQGTLVTVSS
# B4: CLDN18H-G9-pdl1a (bispecific antibody)
# heavy: not shown
# light: DIVMTQSPLSLPVTPGEPASISCKSSQTLLNSGNQKNYLTWYLQKPGQSPQLLIYWASTGESGVPDRFSGSGSGTDFTLKISRVEAEDVGVYYCQNAYFYPFTFGGGTKVEIKRTVAAPSVFIFPPSDEQLKSGTASVVCLLNNFYPREAKVQWKVDNALQSGNSQESVTEQDSKDSTYSLSSTLTLSKADYEKHKVYACEVTHQGLSSPVTKSFNRGEC
# B5: CLDN18H-G12-pdl1a (bispecific antibody)
# heavy: not shown
# light: B4 light
# B6: pdl1a-G12-CLDN18H (bispecific antibody)
# heavy: not shown
# light: B4 light
# B7: pdl1a-G15-CLDN18H (bispecific antibody)
# heavy: not shown
# light: B4 light
# B8: CLDN18H-E-pdl1b (bispecific antibody)
# heavy: not shown
# light: B4 light
# B9: CLDN18H-E-pdl1a (bispecific antibody)
# heavy: not shown
# light: B4 light
# B10: CLDN18H-E-pdl1c (bispecific antibody)
# heavy: not shown
# light: B4 light
# Target: T1, human PD-L1 (human, UniProt Q9NZQ7 19-290)
# Assay: FACS binding, CHO-K1 cells
# T1 sequence (Q9NZQ7 19-290): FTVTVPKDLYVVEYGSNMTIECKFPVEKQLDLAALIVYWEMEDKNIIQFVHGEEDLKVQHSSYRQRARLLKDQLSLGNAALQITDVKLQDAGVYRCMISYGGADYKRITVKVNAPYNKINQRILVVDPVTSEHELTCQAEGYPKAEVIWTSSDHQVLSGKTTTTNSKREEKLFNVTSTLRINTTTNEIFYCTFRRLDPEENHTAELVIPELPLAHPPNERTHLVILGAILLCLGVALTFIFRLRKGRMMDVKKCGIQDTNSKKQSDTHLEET
row,EC50 [nM],Binder
1,0.147,B1
2,0.0898,B2
3,0.808,B3
4,0.111,B4
5,0.281,B5
6,0.0989,B6
7,0.134,B7

# Target: T1, human PD-L1
# Assay: FACS binding, CHO-K1 cells
# Remark: another data set of the same source
row,EC50 [nM],Binder
1,0.296,B8
2,1.46,B9
3,0.317,B10
